24 substances from PMC3760305, “Mimicking Protein–Protein Interactions through Peptide–Peptide Interactions: HIV-1 gp120 and CXCR4” (Frontiers in Immunology, 2013) can be followed below.

The target in assay [1] is CXCR4 mimetic peptide CX4-M1. Kind of assay: direct ELISA. The following applies: parent: 1; read off a plot.
The target of assay [2] is CXCR4 mimetic peptide CX4-M1. As to the kind of experiment: SPR; Biacore X100, Biotin CAPture Kit; CX4-M1 (2 μM) bound to streptavidin; V3 loop peptides 5–0.3 μM; HBS-N (10 mM HEPES, 150 mM NaCl, pH 7.4), 0.05% Tween 20, 100 mM MgCl2; no sCD4.
For assay [3], the target named is CXCR4 mimetic peptide CX4-M1. Kind of assay: SPR; Biacore X100, Biotin CAPture Kit; CX4-M1 (2 μM) bound to streptavidin; gp120 8–0.5 nM; HBS-N (10 mM HEPES, 150 mM NaCl, pH 7.4), 0.05% Tween 20, 2.5 mM MgCl2; no sCD4.

Regarding V3 loop peptide V3_(HxBc2) R306A, in assay [1], the ratio to parent was determined as 0.78.

Turning to V3 loop peptide V3_(HxBc2) G321A, in assay [1], the ratio to parent turned out to be 0.7.

With V3 loop peptide V3_(HxBc2) I323A, the ratio to parent in assay [1] was determined as 0.53.

Turning to V3 loop peptide V3_(HxBc2) R308A, the ratio to parent in assay [1] is 0.57.

Consider V3 loop peptide V3_(HxBc2) F317A, for which the ratio to parent in assay [1] turned out to be 0.16.

As to V3 loop peptide V3_(HxBc2) M326A, the ratio to parent in assay [1] was found to be 1.3.

Take V3 loop peptide V3_(HxBc2): in assay [2], the Kd stood at 300 nM.

In the case of V3 loop peptide V3_(HxBc2) G324A, the ratio to parent in assay [1] was determined as 1.4.

Regarding V3 loop peptide V3_(HxBc2) I307A, the ratio to parent in assay [1] worked out at 0.18.

With V3 loop peptide V3_(HxBc2) N325A, the ratio to parent in assay [1] stood at 1.3.

V3 loop peptide V3_(HxBc2) T319A: the ratio to parent in assay [1] turned out to be 0.63.

Take V3 loop peptide V3_(HxBc2) P313A: in assay [1], the ratio to parent stood at 0.67.

For V3 loop peptide V3_(HxBc2) K322A, in assay [1], the ratio to parent was found to be 2.1.

For V3 loop peptide V3_(HxBc2) R311A, the ratio to parent in assay [1] was 1.4.

Consider “gp120_(HxBc2) (from UniProt P04578 33-511) (natural protein)”, for which the dissociation constant Kd in assay [3] was 200 nM.

For V3 loop peptide V3_(HxBc2) V318A, the ratio to parent in assay [1] was 0.41.

The substance gp120MN (natural protein) had an equilibrium dissociation constant (Kd) in assay [3] of 700 nM.

Substance Gp120_(IIIB) (natural protein) yielded a Kd in assay [3] of 100 nM.

As for V3 loop peptide V3_(HxBc2) G314A, in assay [1], the ratio to parent amounted to 0.86.

V3 loop peptide V3_(HxBc2) G312A: the ratio to parent in assay [1] was 0.82.

Consider V3 loop peptide V3_(HxBc2) Q310A, for which the ratio to parent in assay [1] was determined as 1.

As to V3 loop peptide V3_(HxBc2) I320A, the ratio to parent in assay [1] stood at 0.16.

In the case of V3 loop peptide V3_(HxBc2) I309A, the ratio to parent in assay [1] is 0.13.

For the substance V3 loop peptide V3_(HxBc2) R315A, the ratio to parent in assay [1] came out at 0.46.
